Source: patent US20060233806A1 (JAPAN SCIENCE AND TECHNOLOGY AGENCY, published 2006)

Molecular target: T1, mouse integrin αvβ3 on NIH3T3 cells (mouse, UniProt P43406 31-1044; O54890 26-787)
T1 construct: whole, on cells; Presented on NIH3T3 transformants; also called αvβ3 integrin; 3T3/αvβ3
Assay: cell adhesion assay on PS-coated wells pretreated with D89E
Method: Peroxidase activity was detected using a peroxidase-detecting kit (Sumitomo Bakelite). To assay the ability of MFG-E8 to link the cells to phospholipids, MFG-E8 was bound to microtiter plates coated with phospholipids as described above. In tyrode buffer containing the cells (4×10⁴) (5 mM Hepes-NaOH buffer [pH 7.4], 135 mM NaCl, 5.4 mM KCl, 1.0 mM MgCl₂, 10 mM glucose, and 10 mg/ml BSA) was added to each well, and incubated at room temperature for 1 hour. The cells that had adhered to the plates were quantified by a CyQUANT Cell Proliferation Assay kit (Molecular Probes) using a fluorescent microplate reader (BioLumin 960, Molecular Dynamics) set at excitation wavelength of 485 nm and emission wavelength of 520 nm.
Therefore, the possibility that MFG-E8-L might bind to integrin-expressing cells after said cells are bound to phospholipids was investigated. Microtiter wells coated with PS or PE were successively incubated with three different concentrations (0.1, 1.0 and 2.0 μg/ml) of MFG-E8-L or D89E, and with NIH3T3 (3T3/WT) or αᵥβ₃ integrin-expressing transformants (3T3/αᵥβ₃), and subjected to cell adhesion assay. The number of cells attached to the wells was quantified as described in the methods described in Example A-6. […] D89E mutant was not capable of intermediating the adhering of NIH3T3 cells to the wells coated with PS. […]

T1 sequence (P43406 31-1044, chain 1 of 2): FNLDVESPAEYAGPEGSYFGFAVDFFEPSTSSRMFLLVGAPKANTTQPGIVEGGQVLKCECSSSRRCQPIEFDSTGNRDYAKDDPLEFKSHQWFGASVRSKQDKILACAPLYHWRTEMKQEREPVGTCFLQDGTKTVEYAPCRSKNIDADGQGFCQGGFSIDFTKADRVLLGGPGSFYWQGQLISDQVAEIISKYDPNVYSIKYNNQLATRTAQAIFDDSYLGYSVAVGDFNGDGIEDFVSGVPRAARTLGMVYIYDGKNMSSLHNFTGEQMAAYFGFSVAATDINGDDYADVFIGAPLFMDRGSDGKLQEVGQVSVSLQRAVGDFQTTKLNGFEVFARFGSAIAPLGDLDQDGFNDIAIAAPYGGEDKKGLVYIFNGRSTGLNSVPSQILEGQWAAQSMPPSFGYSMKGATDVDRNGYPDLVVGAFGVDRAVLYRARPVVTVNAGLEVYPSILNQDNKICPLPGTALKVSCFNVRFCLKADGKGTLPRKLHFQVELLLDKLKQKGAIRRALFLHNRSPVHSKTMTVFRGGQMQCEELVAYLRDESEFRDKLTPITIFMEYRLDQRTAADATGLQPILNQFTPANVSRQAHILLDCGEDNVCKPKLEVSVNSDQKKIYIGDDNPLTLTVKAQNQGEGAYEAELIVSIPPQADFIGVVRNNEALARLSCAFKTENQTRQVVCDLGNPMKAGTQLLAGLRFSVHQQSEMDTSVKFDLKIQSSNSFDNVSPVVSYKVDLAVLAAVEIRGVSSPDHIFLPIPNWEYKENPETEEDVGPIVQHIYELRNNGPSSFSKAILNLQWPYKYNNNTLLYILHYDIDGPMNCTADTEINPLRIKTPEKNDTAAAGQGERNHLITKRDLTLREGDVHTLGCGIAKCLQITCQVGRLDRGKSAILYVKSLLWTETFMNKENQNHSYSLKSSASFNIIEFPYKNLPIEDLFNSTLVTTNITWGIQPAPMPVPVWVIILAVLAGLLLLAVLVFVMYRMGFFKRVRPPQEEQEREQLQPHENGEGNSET
T1 sequence (O54890 26-787, chain 2 of 2): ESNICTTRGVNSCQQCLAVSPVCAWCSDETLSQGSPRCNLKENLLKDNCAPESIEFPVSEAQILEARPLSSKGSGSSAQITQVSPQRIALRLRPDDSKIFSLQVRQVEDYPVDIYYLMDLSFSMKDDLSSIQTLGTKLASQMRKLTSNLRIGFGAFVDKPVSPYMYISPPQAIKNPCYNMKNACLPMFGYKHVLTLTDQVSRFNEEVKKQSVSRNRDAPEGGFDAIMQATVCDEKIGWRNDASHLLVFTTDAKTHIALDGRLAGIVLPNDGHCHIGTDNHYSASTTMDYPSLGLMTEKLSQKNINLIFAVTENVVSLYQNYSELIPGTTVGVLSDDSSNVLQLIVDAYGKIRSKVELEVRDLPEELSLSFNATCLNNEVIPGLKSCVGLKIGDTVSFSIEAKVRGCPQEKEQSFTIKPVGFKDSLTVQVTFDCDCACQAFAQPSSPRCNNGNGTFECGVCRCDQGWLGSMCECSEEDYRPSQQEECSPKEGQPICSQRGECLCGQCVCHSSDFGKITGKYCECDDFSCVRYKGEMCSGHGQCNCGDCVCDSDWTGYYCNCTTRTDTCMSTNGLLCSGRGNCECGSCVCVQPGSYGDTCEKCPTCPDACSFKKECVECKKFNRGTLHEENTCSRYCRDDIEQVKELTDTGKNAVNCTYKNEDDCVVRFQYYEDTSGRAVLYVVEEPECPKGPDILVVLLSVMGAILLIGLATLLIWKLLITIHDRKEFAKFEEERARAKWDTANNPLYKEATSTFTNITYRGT

B1: D89E mutant of mouse MFG-E8-L (ligand)
chain: ASGDFCDSSLCLNGGTCLTGQDNDIYCLCPEGFTGLVCNETERGPCSPNPCYNDAKCLVTLDTQRGEIFTEYICQCPVGYSGIHCETETNYYNLDGEYMFTTAVPNTAVPTPAPTPDLSNNLASRCSTQLGMEGGAIADSQISASSVYMGFMGLQRWGPELARLYRTGIVNAWTASNYDSKPWIQVNLLRKMRVSGVMTQGASRAGRAEYLKTFKVAYSLDGRKFEFIQDESGGDKEFLGNLDNNSLKVNMFNPTLEAQYIRLYPVSCHRGCTLRFELLGCELHGCSEPLGLKNNTIPDSQMSASSSYKTWNLRAFGWYPHLGRLDNQGKINAWTAQSNSAKEWLQVDLGTQRQVTGIITQGARDFGHIQYVASYKVAHSDDGVQWTVYEEQGSSKVFQGNLDNNSHKKNIFEKPFMARYVRVLPVSWHNRITLRLELLGC
notes: Point mutation in the RGD motif of the second EGF domain; Expressed in human 293T cells; also called D89 mutant; not shown: FLAG marker peptide at the C-terminus (derivatives were detected with anti-FLAG)
binding result: no binding (tested: 0.1, 1.0 and 2.0 µg/ml)
